Measurements taken from patent publication US20070116750A1, “Compositions for disrupting and inhibiting reconstitution of wound biofilm” (priority 2005, published 2007).
Entries after “also recorded” stand apart in the source; their conditions may differ.

Tests used:
[1] = tested on: P. aeruginosa; conditions: in vitro; cited from earlier work
[2] = tested on: chronic wound biofilm; assay: Topical treatment of patients' chronic/non-healing wounds in the clinic (case reports and clinical experience); type: in vivo, human; conditions: for wound healing outcome: topical application with debridement and other wound care
Description: The composition is preferably applied following wound debridement. Although biofilm bacteria cannot be completely eradicated from the wound area by debridement, decreasing biofilm mass and providing increased exposure of the debrided tissue and remaining biofilm bacteria to the inventive compositions increases wound healing. […] It is therefore of benefit to debride the slough from the wound as completely as possible. Debridement can be performed by surgical, mechanical, autolytic, enzymatic, or a combination of means known to those of skill in the art of wound care. Furthermore, standard gauze dressings to pack or cover the wound will preferably be avoided, since those dressings may enhance biofilm formation or reconstitution in the wound. If used, such dressings may, however, be coated or impregnated with a composition of the present invention to decrease the biofilm-enhancing properties of a gauze dressing.
Topical wound care compositions may comprise about 2 to about 200 mg of MDPP or MDPP-A per cubic centimeter of total composition. In one embodiment, a composition comprises about 20 to about 200 mg of MDPP or MDPP-A, provided as Bioferrino®1000 or Bioferrin®2000, per cubic centimeter of total composition and about 1 to about 50, or in some embodiments about 5 to about 20, percent (w/v) xylitol. In one embodiment, this composition may be admixed into a methylcellulose/gelatin gel. This composition can be applied, in an amount of about ½ to about 5 cc of protein isolate/xylitol composition to each one square centimeter of wound area, to a freshly debrided chronic wound after the slough has been removed.
Xylitol (one-, two-, three-, four-, and five-xypentane hydro from Spectrum Chemical) comprised the second active ingredient, and was present at a concentration of 5% by weight of the mixture. The base gel of the composition comprised methylcellulose (0.023 gm/cc), gelatin (0.013 gm/cc) and sterile water.

[3] = tested on: Streptococcus mutans; conditions: lactoferrin and iron depletion; cited from earlier work
[4] = tested on: oral ulcers; conditions: hamsters; cited from earlier work
[5] = individual patient case reports

B1: lactoferrin: iron-binding glycoprotein, 75,000-80,000 Daltons; in Examples 2-11 applied as Bioferrin with xylitol in gel (protein, UniProt P24627 20-708, looked up)
Lactotransferrin: APRKNVRWCTISQPEWFKCRRWQWRMKKLGAPSITCVRRAFALECIRAIAEKKADAVTLDGGMVFEAGRDPYKLRPVAAEIYGTKESPQTHYYAVAVVKKGSNFQLDQLQGRKSCHTGLGRSAGWIIPMGILRPYLSWTESLEPLQGAVAKFFSASCVPCIDRQAYPNLCQLCKGEGENQCACSSREPYFGYSGAFKCLQDGAGDVAFVKETTVFENLPEKADRDQYELLCLNNSRAPVDAFKECHLAQVPSHAVVARSVDGKEDLIWKLLSKAQEKFGKNKSRSFQLFGSPPGQRDLLFKDSALGFLRIPSKVDSALYLGSRYLTTLKNLRETAEEVKARYTRVVWCAVGPEEQKKCQQWSQQSGQNVTCATASTTDDCIVLVLKGEADALNLDGGYIYTAGKCGLVPVLAENRKSSKHSSLDCVLRPTEGYLAVAVVKKANEGLTWNSLKDKKSCHTAVDRTAGWNIPMGLIVNQTGSCAFDEFFSQSCAPGADPKSRLCALCAGDDQGLDKCVPNSKEKYYGYTGAFRCLAEDVGDVAFVKNDTVWENTNGESTADWAKNLNREDFRLLCLDGTRKPVTEAQSCHLAVAPNHAVVSRSDRAAHVKQVLLHQQALFGKNGKNCPDKFCLFKSETKNLLFNDNTECLAKLGGRPTYEEYLGTEYVTAIANLKKCSTSPLLEACAFLTR
In the case of B1, the “effect on biofilm formation” value [1] is listed as “block biofilm formation”, the “inhibition of biofilm reconstitution / response of wounds, clinical experience” value ([2]; chronic wounds after debridement, comparative statements) is listed as “inhibits reconstitution of an existing biofilm in a chronic wound” and the “slough (biofilm) in the wound bed during therapy” value [2, 5] is listed as “no evidence of slough”. The wound healing outcome [2, 5] was “the wound healed; also recorded: almost completely healed”, the wound healing outcome ([2]; individual patient case reports, listed as Lactoferrin) was “complete healing of their wound” and the “time to complete healing / closure of wound” value ([2]; patients with venous leg wounds) was 5 weeks. The “effect on biofilm formation” value [3] was “stimulate biofilm formation” and the “efficacy for treating oral ulcers” value [4] was “not effective”.
